Results on one molecule are retold here after patent CN109750002A.

Test [1] addresses 人BTN3A3 (Butyrophilin subfamily 3 member A3), membrane form on cells (BT474-BTN3A3 overexpressing cells) (human) (UniProt O00478). The test can be described thus: adhesion assay by flow cytometry on BT474-BTN3A3 cells, with 5E08 mixed 1:1 (molar) with LSECtin as blocker. In general terms: A flow cytometer gives signals particle by particle.
Test [2] has the same target. Briefly: adhesion assay by flow cytometry on BT474-BTN3A3 cells, with control human IgG; LSECtin-positive ZSG-positive cells / ZSG-positive cells.

UniProt O00478, sequence (O00478 30-584): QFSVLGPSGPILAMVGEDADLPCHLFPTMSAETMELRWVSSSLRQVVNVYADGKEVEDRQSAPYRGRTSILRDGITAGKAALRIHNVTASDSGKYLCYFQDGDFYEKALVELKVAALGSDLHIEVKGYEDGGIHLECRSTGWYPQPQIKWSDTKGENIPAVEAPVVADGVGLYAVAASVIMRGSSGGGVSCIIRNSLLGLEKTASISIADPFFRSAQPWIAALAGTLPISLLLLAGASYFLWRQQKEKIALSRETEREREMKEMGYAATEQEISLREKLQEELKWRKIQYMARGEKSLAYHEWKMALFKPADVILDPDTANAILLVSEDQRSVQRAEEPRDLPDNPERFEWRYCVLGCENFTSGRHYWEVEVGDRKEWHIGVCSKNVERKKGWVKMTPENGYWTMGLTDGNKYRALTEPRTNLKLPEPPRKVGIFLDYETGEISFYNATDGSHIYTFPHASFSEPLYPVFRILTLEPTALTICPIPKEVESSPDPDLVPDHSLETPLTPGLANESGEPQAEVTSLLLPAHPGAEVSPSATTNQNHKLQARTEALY

B1: LSECtin蛋白 (Liver Sinusoidal Endothelial Cells lectin) (ligand, UniProt Q6UXB4 53-293, looked up)
chain: LSKASTERAALLDGHDLLRTNASKQTAALGALKEEVGDCHSCCSGTQAQLQTTRAELGEAQAKLMEQESALRELRERVTQGLAEAGRGREDVRTELFRALEAVRLQNNSCEPCPTSWLSFEGSCYFFSVPKTTWAAAQDHCADASAHLVIVGGLDEQGFLTRNTRGRGYWLGLRAVRHLGKVQGYQWVDGVSLSFSHWNQGEPNDAWGRENCVMMLHTGLWNDAPCDSEKDGWICEKRHNC
For B1, the LSECtin粘附率 in test [1] came to 1.4%; in test [2] it was 16.1%.
